# In patent US20200247855A1, “THERAPY AND DIAGNOSTICS” (OXFORD UNIVERSITY INNOVATION LIMITED, priority 2017, published 2020):
# T1: CCL8_HUMAN (Homo sapiens, UniProt P80075)
# T1 sequence (P80075 24-99): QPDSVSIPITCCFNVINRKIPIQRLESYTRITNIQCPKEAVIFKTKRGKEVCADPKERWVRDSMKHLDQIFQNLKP
# T2: CCL16_HUMAN (Homo sapiens, UniProt O15467)
# T2 sequence (O15467 24-120): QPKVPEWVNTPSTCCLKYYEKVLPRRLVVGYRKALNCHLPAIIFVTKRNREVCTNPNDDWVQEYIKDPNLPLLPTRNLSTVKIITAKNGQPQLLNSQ
# T3: CCL25_HUMAN (Homo sapiens, UniProt O15444)
# T3 sequence (O15444 24-150): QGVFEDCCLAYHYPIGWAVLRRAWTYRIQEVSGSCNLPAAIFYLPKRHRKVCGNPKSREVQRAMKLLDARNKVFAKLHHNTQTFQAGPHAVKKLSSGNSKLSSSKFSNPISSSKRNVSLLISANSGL
# Columns and labels:
# [1] = system: leucocyte recruitment to the zymosan air-pouch; experiment: Zymosan subcutaneous dorsal air-pouch inflammation model; format: in vivo; settings: 5 mg/kg, exudate at 24 hours, mouse
# Protocol: Zymosan or PBS (control) was injected into the air-pouch (a.p.) on day 6. Peptide or protein (blue) was injected into the air-pouch on day 6 at the time of zymosan injection and repeated 9 hours later. Air-pouch exudate was collected and analysed on day 7 by flow cytometry (FC).
# G. Experimental design to assess efficacy of intraperitoneally administered peptide. This is identical to that used for locally administered peptide (above) except that peptide or protein was administered intraperitoneally (i.p.).
# C57BL/6J male mice (25-30 g, 8-10-week-old) were obtained from Charles River (UK). They were group housed in temperature and humidity-controlled rooms, kept on a 12-hr light-dark cycle, and provided with food and water ad libitum. Air pouches were established at the dorsal side of the mice as described (Duarte, D. B. et al., Curr Protoc Pharmacol [2016]). […] Total numbers of leucocytes, neutrophils, monocytes, T-cells and eosinophils were counted using an Attune N×T flow cytometer following staining with cell specific antibodies. […]
# To characterize the inflammatory subsets in the pouch, multi-colour fluorescence cell staining was conducted using the combination of the following antibodies for various immune cells. […] Data were analysed using FlowJo by an observer blinded to the treatment received. […]
# CCL8_HUMAN = target: T1, CCL8_HUMAN; settings: Eaton, J. R. O. et al., JBC [2018], cited from earlier work
# CCL7_HUMAN = CCL7_HUMAN (Homo sapiens, UniProt P80098); settings: read-out: Kd, CCL7_HUMAN, previously described evasins; data obtained from publications [20-22,32]; cited from earlier work
# CCL16_HUMAN = target: T2, CCL16_HUMAN; settings: read-out: Kd, CCL16_HUMAN, previously described evasins; data obtained from publications [20-22,32]; cited from earlier work
# CCL25_HUMAN = target: T3, CCL25_HUMAN; settings: read-out: Kd, CCL25_HUMAN, previously described evasins; data obtained from publications [20-22,32]; cited from earlier work
# chemokines = settings: list of chemokines bound, from the literature [18,20-22]; cited from earlier work
# CCL7_HUMAN, sequence (P80098 24-99): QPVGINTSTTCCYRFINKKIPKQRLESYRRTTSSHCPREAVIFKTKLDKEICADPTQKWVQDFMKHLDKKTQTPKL
molecule,measurement,setting,value
"P672_RHIPU: tick CKBP, Rhipicephalus pulchellus (protein, listed as Rhipicephalus pulchellus) VCEVSEQEGVGEDNATEDEDYEDFFKPVTCYFANSTVGPLRPPNCTVVCTNNTAWWNDTKSDGGHCYSEYRPEKRTHSREIYNCTIGVCGNGTCIANHTYADCW","Number of neutrophils, eosinophils, monocytes and T-cells recruited to the air-pouch, local administration",[1]; injected into the air-pouch at 0 and 9 h,strong and significant reduction
same,"Number of neutrophils, eosinophils, monocytes and T-cells recruited to the air-pouch, intraperitoneal administration",[1]; injected intraperitoneally at 0 and 9 h,substantial and significant reduction
same,Residency time (RT) of P672:CCL8 interaction,CCL8_HUMAN,27 min
same,Kd,CCL8_HUMAN; read-out: Kd of P672:CCL8 interaction,8.5 nM
"EVASIN4: previously described tick CKBP evasin 4, from Rhipicephalus sanguineus (protein, listed as Rhipicephalus sanguineus) EVPQMTSSSAPDLEEEDDYTAYAPLTCYFTNSTLGLLAPPNCSVLCNSTTTWFNETSPNNASCLLTVDFLTQDAILQENQPYNCSVGHCDNGTCAGPPRHAQCW",Kd,CCL7_HUMAN,0.7 nM
same,Kd,CCL16_HUMAN,0.26 nM
same,Kd,CCL25_HUMAN,69.6 nM
"P1243_AMBAM: tick CKBP, Amblyomma americanum; AAM-02 stated identical (protein, listed as Amblyomma americanum) RNHTEDNSTEYYDYEEARCACPARHLNNTNGTVLKLLGCHYFCNGTLCTAPDGYPCYNLTAQQVRTLTTYPNTSCAVGVCMKGTCVKNGTMEQCFKTP",Previously described chemokine binding,chemokines,"CCL11, CCL24, and CCL26, CCL2, and CCL7"
